# T1: AtFib2 (Arabidopsis thaliana, UniProt Q94AH9 1-320)
# T1 sequence: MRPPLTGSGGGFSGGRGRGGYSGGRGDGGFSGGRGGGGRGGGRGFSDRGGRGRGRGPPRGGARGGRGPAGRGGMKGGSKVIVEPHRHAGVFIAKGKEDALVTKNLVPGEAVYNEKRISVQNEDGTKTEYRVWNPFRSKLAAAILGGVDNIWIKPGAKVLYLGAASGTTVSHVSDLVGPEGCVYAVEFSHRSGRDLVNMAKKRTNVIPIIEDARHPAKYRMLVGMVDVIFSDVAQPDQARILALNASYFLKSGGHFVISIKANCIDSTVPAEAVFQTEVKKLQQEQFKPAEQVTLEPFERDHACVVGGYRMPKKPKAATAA
# Target: T1, AtFib2
# Experiment: EMSA
binder,measurement,value
poly(A) 80 nt (ssRNA) RNA: AAAAAAAAAAAAAAAAAAAAAAAAAAAAAAAAAAAAAAAAAAAAAAAAAAAAAAAAAAAAAAAAAAAAAAAAAAAAAAAA,Kd,190 nM

# Source: paper PMC3203579
